Measured values reported in article PMC7652416, “Structural basis of ClpXP recognition and unfolding of ssrA-tagged substrates” (eLife, 2020).

Molecular target: the molecule itself
Assay: cryo-EM structure; single-chain ClpX^∆N (4 µM), ClpP (1.8 µM), ATPγS (2.5 mM) in 20 mM HEPES pH 7.5, 100 mM KCl, 25 mM MgCl2, 5 min at 25°C; equal volume of GFP-G3YG9SENYALAA (20 µM) and ATP (2.5 mM) added; vitrified within 15 s of final mixing

B1: E. coli ClpP (enzyme)
chain: not shown
notes: E. coli (strain K12) ClpP, UniProtKB P0A6G7; Double-ring tetradecamer of two heptameric rings; also called ClpP14; ClpP tetradecamer; source: recombinant (plasmid pT7 ClpP), purified as described (Kim et al., 2000; Bell et al., 2019); copies: 14
- stoichiometry N: 14
